Consider 1 protein from patent US7555415B2, “Methods for the design of estrogen receptor ligands” (Wyeth, priority 2005, dated 2009).

This data set deals with the molecule itself. The data set is described as follows: X-ray crystallography, co-crystals with Compound 1 or Compound 2, two LBD molecules per asymmetric unit.

B1: human estrogen receptor alpha ligand binding domain (ERalpha-LBD), carboxymethylated (receptor)
chain: SKKNSLALSLTADQMVSALLDAEPPILYSEYDPTRPFSEASMMGLLTNLADRELVHMINWAKRVPGFVDLTLHDQVHLLECAWLEILMIGLVWRSMEHPVKLLFAPNLLLDRNQGKCVEGMVEIFDMLLATSSRFRMMNLQGEEFVCLKSIILLNSGVYTFLSSTLKSLEEKDHIHRVLDKITDTLIHLMAKAGLTLQQQHQRLAQLLLILSHIRHMSNKGMEHLYSMKCKNVVPLYDLLLEMLDAHRLHAPTS
modifications: carboxymethylated with 5 mM iodoacetic acid while bound to the estradiol-affinity column; modified residues not stated
notes: also called human ERalpha-LBD; ERalpha-LBD (301-554)
As for B1, the binding result was “binds”.
